The results in this text go back to patent US20080267961A1 (published 2008).

Experiment [1] concerns the target HRGβ177-244 (UniProt Q02297). Nature of the experiment: 125I-HRGβ177-244 binding to ErbB3-IgG homodimer (positive control), 96-well plate, Scatchard analysis.
The next experiment deals with HRGα EGF domain177-241 (UniProt Q02297). Briefly: cell-based or functional assay.
The target of experiment [2] is T1, HRGβ 1 EGF domain 176-246 (UniProt Q02297-6 176-246, 125I-labelled in the crosslinking experiment (residue not stated)).
T1 sequence (looked up): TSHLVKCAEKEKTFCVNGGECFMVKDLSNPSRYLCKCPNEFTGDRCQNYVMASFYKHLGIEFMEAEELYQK
Nature of the experiment: cell-based or functional assay.

In the next experiment the target is ErbB2 (UniProt P04626). Nature of the experiment: inhibition of 125I-HRGβ177-244 (0.1 nM) binding to T47D cells; 2C4 varied.
The target of experiment [3] is HRGα EGF domain177-241, Q02297. Nature of the experiment: cell-based or functional assay.
For experiment [4], the target named is HRGβ177-244 (UniProt Q02297). Briefly: inhibition of 125I-HRGβ177-244 (0.1 nM) binding to T47D cells; p85-sErbB3 varied.
Experiment [5] deals with HRGβ177-244 (UniProt Q02297). Briefly: 125I-HRGβ177-244 binding to immobilized p85-sErbB3, 96-well plate, Scatchard analysis.

Consider “ErbB3-IgG fusion protein (from UniProt P21860 20-643) (Fc fusion)”, for which the Kd (commonly the constant that tells how readily two partners part at equilibrium) in the experiment with HRGβ177-244 [1] worked out at 4.7 nM.

In turn, “p45-sErbB3 (from UniProt P21860 20-329) (receptor)” displayed an inhibition of HRGα-stimulated ErbB3 activation (tyrosine phosphorylation, densitometry) in Ba/F3 (ErbB2+ErbB3) cells, 1 µg/ml HRGα, conditioned medium with HRGα EGF domain177-241 of 40%. Besides, the decrease of ligand-stimulated ErbB3 tyrosine phosphorylation in Ba/F3 (ErbB2+ErbB3) cells, 50 and 100 ng/ml HRGβ, conditioned medium in experiment [2] was determined as 60%.

As for “2C4, a monoclonal antibody specific for the ErbB2 extracellular domain”, the IC50 (usually the point on the concentration scale where inhibition reaches its midpoint) with ErbB2 was determined as 0.55 nM.

B1: p85-sErbB3, P21860 20-538 (receptor)
chain: SEVGNSQAVCPGTLNGLSVTGDAENQYQTLYKLYERCEVVMGNLEIVLTGHNADLSFLQWIREVTGYVLVAMNEFSTLPLPNLRVVRGTQVYDGKFAIFVMLNYNTNSSHALRQLRLTQLTEILSGGVYIEKNDKLCHMDTIDWRDIVRDRDAEIVVKDNGRSCPPCHEVCKGRCWGPGSEDCQTLTKTICAPQCNGHCFGPNPNQCCHDECAGGCSGPQDTDCFACRHFNDSGACVPRCPQPLVYNKLTFQLEPNPHTKYQYGGVCVASCPHNFVVDQTSCVRACPPDKMEVDKNGLKMCEPCGGLCPKACEGTGSGSRFQTVDSSNIDGFVNCTKILGNLDFLITGLNGDPWHKIPALDPEKLNVFRTVREITGYLNIQSWPPHMHNFSVFSNLTTIGGRSLYNRGFSLLIMKNLNVTSLGFRSLKEISAGRIYISANRQLCYHHSLNWTKVLRGPTEERLDIKHNRPRRDCVAEGKVCDPLCSSGGCWGPGPGQCLSCRNYSRGGVCVTHCNFLNGYSKGSQSRMGGGGALQWNCSGGIQ
modifications: here or on the partner: Secreted glycoprotein (bound to Con A); glycans not carried by the letters.
In experiment [3], B1 returned a decrease of HRGα-stimulated ErbB3 activation in Ba/F3 (ErbB2+ErbB3) cells, 2 µg/ml HRGα, conditioned medium of 30% and an inhibition of HRGα-stimulated ErbB3 activation (tyrosine phosphorylation, densitometry) in Ba/F3 (ErbB2+ErbB3) cells, 1 µg/ml HRGα, conditioned medium of 80%.

B2: p85-sErbB3 (receptor)
chain: B1 chain
modifications: Secreted glycoprotein (bound to Con A); glycans not carried by the letters.
Consider B2, for which the IC50 in the experiment with HRGβ177-244 [4] amounted to 0.45 nM. In addition, in experiment [2], the “inhibition of HRGβ-stimulated MCF7 cell growth, 0.4 nM HRGβ, 40 nM p85-sErbB3 (100-fold molar excess), 5,000 cells/well” value came to 75% and the “inhibition of HRGβ-stimulated MCF7 cell growth, 0.4 nM HRGβ, 40 nM p85-sErbB3 (100-fold molar excess), 8,000 cells/well” value was found to be 90%. In addition, in the experiment with HRGβ177-244 [5], the equilibrium dissociation constant (Kd) came out at 3 nM.
